The record followed here is patent US20260146103A1 (J DAVID GLADSTONE INSTITUTES A TESTAMENTARY TRUST …, published 2026).

Experiment [1] concerns the target T1, P2 peptide (YSMKETTMKIIPFNRLTIG).
T1 peptide: YSMKETTMKIIPFNRLTIG
The experiment in a line: solid phase ELISA, 30 µM P2 peptide coated. How it is done:
Based on the fibrinogen peptide profiling (FIG. 8), 15mers were selected to carry out individual peptide binding validation using solid phase ELISA. High purity 15mers were synthesized (Genemed) and then each were diluted at 30 μM in 20 mM HEPES buffer, coated in separate wells and dried overnight. Antibody G was incubated on peptide coated wells for 2 hours at 37° C., at a concentration of 25 or 50 μg/mL.
A general note: An ELISA detects its analyte on a solid surface through an enzyme-linked reagent.

For experiment [2], the target named is FIBG 331-345 peptide (human) (UniProt P02679). The experiment in a line: solid phase ELISA, 30 µM FIBG331-345 peptide coated.
A further experiment has as its target T2, fibrin (UniProt P02671 36-629; P02675 45-491; P02679 27-437).
T2 construct: also called IgG-depleted fibrin; fibrin networks
T2 sequence (looked up) 1: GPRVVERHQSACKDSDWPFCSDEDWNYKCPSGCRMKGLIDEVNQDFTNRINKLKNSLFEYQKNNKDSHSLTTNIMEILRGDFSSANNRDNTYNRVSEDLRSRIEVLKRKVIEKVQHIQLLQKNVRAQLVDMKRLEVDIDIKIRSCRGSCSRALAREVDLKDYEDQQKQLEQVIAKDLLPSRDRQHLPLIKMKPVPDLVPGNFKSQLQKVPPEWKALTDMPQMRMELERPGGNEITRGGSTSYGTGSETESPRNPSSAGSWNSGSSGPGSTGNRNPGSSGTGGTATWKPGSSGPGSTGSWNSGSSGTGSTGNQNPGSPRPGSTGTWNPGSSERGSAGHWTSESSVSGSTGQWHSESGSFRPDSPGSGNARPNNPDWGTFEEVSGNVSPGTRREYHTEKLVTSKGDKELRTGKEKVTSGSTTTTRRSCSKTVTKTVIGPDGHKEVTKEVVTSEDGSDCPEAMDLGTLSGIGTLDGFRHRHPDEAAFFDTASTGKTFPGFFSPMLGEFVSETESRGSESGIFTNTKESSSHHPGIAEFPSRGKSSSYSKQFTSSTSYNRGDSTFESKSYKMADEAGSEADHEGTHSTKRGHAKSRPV
T2 sequence (looked up) 2: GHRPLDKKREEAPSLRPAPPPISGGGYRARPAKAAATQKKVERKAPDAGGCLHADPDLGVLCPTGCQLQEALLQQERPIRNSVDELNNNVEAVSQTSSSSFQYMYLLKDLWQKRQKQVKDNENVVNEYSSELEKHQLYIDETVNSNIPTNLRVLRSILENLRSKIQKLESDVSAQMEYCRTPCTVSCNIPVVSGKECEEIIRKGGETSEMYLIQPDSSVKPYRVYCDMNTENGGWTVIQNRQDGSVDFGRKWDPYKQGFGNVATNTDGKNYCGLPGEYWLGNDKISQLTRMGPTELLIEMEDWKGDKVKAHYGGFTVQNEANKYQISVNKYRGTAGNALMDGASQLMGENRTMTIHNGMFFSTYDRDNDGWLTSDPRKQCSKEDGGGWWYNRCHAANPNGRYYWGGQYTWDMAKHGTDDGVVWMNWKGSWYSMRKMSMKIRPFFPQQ
T2 sequence (looked up) 3: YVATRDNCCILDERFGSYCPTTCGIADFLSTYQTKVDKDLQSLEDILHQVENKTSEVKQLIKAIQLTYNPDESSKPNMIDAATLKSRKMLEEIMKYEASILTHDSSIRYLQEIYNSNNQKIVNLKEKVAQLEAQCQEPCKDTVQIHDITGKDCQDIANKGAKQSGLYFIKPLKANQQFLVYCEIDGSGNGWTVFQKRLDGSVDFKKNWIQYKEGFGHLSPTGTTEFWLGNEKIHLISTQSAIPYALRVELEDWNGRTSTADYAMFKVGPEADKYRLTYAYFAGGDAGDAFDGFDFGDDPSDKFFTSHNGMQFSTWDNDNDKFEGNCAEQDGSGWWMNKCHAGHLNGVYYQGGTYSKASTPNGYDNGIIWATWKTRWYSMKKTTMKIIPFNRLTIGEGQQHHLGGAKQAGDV
The experiment in a line: solid phase ELISA, 25 µg/mL IgG-depleted fibrin coated, 12-point 3-fold dilution. The procedure:
(§1) Solid phase ELISA was used to assess whether Antibody G binds to fibrinogen and fibrin separately. Antibody G was incubated for 2 hours at 37° C. on 25 μg/mL IgG-depleted fibrinogen or fibrin in 20 mM HEPES buffer, pH7.2, coated and dried overnight in high protein-binding ELISA plates.
Solid phase ELISA was used to assess murine Antibody G binding to fibrin. Antibody G was incubated for 2 hours at 37° C. on 25 μg/mL IgG-depleted fibrin in 20 mM HEPES buffer, pH7.2, coated and dried overnight in high protein-binding ELISA plates.

The next experiment concerns the target T3, fibrinogen (UniProt P02671 20-629; P02675 31-491; P02679 27-437, limits assumed).
T3 construct: also called IgG-depleted fibrinogen
T3 sequence (looked up) 1: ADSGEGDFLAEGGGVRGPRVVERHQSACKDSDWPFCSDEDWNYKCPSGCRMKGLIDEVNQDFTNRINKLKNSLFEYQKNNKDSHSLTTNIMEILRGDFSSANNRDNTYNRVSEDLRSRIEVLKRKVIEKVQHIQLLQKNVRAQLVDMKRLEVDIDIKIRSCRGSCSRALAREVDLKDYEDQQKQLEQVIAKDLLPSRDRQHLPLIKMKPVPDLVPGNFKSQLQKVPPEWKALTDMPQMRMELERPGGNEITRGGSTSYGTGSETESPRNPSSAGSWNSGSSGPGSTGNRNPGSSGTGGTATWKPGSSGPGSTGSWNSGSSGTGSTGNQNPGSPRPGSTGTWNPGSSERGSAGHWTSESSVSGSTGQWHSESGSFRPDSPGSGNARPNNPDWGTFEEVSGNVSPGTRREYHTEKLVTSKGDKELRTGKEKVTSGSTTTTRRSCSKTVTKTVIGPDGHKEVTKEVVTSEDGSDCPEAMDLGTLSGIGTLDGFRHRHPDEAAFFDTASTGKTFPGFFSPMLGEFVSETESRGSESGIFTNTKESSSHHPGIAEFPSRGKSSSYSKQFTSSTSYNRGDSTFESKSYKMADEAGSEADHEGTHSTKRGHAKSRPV
T3 sequence (looked up) 2: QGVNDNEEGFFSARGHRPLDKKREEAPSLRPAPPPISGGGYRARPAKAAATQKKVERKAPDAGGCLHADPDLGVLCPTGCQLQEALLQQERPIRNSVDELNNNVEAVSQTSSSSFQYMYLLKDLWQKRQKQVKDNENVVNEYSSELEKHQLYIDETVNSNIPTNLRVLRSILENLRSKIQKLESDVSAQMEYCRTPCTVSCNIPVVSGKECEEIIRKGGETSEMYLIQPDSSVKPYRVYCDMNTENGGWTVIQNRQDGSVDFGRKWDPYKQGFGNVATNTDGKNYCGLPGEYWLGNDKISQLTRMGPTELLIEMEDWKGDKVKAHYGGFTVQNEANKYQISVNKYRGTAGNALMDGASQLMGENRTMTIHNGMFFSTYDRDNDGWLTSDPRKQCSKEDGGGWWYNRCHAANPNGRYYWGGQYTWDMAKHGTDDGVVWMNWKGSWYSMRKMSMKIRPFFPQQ
T3 sequence (looked up) 3: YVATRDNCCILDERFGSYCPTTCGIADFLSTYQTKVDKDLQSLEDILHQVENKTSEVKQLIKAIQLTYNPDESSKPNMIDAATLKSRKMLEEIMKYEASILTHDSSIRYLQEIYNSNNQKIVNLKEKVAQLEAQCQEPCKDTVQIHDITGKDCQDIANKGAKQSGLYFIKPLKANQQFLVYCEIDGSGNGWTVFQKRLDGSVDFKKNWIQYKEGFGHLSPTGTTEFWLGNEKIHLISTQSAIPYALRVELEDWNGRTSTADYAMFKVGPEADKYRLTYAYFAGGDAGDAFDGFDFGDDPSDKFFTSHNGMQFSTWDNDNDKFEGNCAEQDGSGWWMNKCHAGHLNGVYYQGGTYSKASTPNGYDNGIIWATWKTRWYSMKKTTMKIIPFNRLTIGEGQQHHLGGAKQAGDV
Briefly: solid phase ELISA, 25 µg/mL IgG-depleted fibrinogen coated, 12-point 3-fold dilution. The procedure:
as §1

B1: Antibody G (45-C1C3) (antibody, V domains shown)
VH: EVQLVESGGGAVQPGRSLRLSCAASGVSFSNIGMHWVRQAPGKGLEWVALISSDGRHTHYADSVKGRFTISRDNSENTLYLQINGLRADDTAVYYCAKGLDTRARYMGKFYTFDYWGQGTLVTVSS
VL: DIQLTQSPSSLSASVGDRVTITCRASQNIGVNLNWYQQRPGKGPKLLVSSTFSLQSGVPSRFSASGAGTNFTLTISSLQPEDYVTYYCQQSYSSPFTFGPGTKVDIK
notes: also called mAb G; Ab G
For orientation: Kd means the equilibrium constant for the complex coming apart. A low value points to tighter binding. Regarding B1, the Kd is 11800 nM in experiment [1], 360 nM in experiment [2], 160 nM in the experiment with fibrin and 660 nM in the experiment with fibrinogen.

B2: murine Antibody G (mu-AbG) (antibody, mouse IgG2a, kappa, V domains shown)
VH: EVQLVESGGGAVQPGRSLRLSCAASGVSFSNIGMHWVRQAPGKGLEWVALISSDGRHTHYADSVKGRFTISRDNSENTLYLQINGLRADDTAVYYCAKGLDTRARYMGKFYTFDYWGQGTLVTVSS
VL: DIQLTQSPSSLSASVGDRVTITCRASQNIGVNLNWYQQRPGKGPKLLVSSTFSLQSGVPSRFSASGAGTNFTLTISSLQPEDYVTYYCQQSYSSPFTFGPGTKVDIKR
notes: Variable domains of Antibody G with mouse IgG2a heavy and mouse kappa light constant regions; also called murine mAb G
The molecule B2 returned a Kd with fibrin of 40 nM. This lies in the double-digit nanomolar range.
